The values below come from US20200024330A1.

What all share (assay): cell-based or functional assay
Assay [1] has as its target HIV-1 MGRM-F1-013 Env (pseudovirus) (HIV-1).
For assay [2], the target named is HIV-1 IAVI-C18 envelope glycoprotein (Env) on pseudovirus (HIV-1).
For assay [3], the target named is HIV-1 SF162 envelope protein (Env) on pseudotyped virus (HIV-1 isolate SF162) (UniProt P19550).
Assay [4] deals with HIV-1 IAVI_C22 envelope protein (Env) on pseudotyped virus (HIV-1 isolate IAVI C22).
Assay [5] concerns the target HIV-1 92RW020 Env (pseudovirus) (HIV-1 92RW020).
Assay [6] has as its target HIV-1 92BR020 envelope protein (Env) on pseudotyped virus (HIV-1 isolate 92BR020).
For assay [7], the target named is HIV-1 MGRM-C-028 envelope glycoprotein (Env) (HIV-1).
Assay [8] has as its target HIV-1 Env of isolate MGRM-A-011 (HIV-1).
Assay [9] concerns the target HIV-1 Env of isolate MGRM-F1-004 (HIV-1).
Assay [10] has as its target HIV-1 Env of isolate MGRM-C-024 (subtype C), on pseudovirus (HIV-1).
Assay [11] concerns the target HIV-1 envelope glycoprotein (Env) of isolate MGRM-Chronic-B-018, on pseudovirus (HIV-1).
The target of assay [12] is HIV-1 Env of isolate MGRM-A-005 (HIV-1).
In assay [13] the target is HIV-1 envelope glycoprotein (Env) of isolate MGRM-Chronic-B-017, on pseudovirus (HIV-1).
The target of assay [14] is HIV-1 Env of isolate 92RW024 (HIV-1).
For assay [15], the target named is HIV-1 envelope glycoprotein (Env) of isolate CAAN.A2, on pseudovirus (HIV-1).
Assay [16] deals with HIV-1 envelope glycoprotein (Env) of isolate MGRM-Chronic-B-012, on pseudovirus (HIV-1).
Assay [17] concerns the target HIV-1 Env of isolate MGRM-D-028 (HIV-1).
Assay [18] concerns the target HIV-1 MGRM-C-027 Env (pseudovirus) (HIV-1).
Assay [19] addresses HIV-1 93UG077 Env (pseudovirus) (HIV-1).
The target of assay [20] is HIV-1 Env of isolate MG RM-AG-013 (HIV-1).
The target in assay [21] is HIV-1 Env of isolate MG RM-AG-003 (HIV-1).
In assay [22] the target is HIV-1 JR-FL Env (pseudovirus) (HIV-1).
Assay [23] deals with HIV-1 93UG077 Env (on pseudovirus) (HIV-1).
Assay [24] addresses HIV-1 MGRM-AG-005 Env (on pseudovirus) (HIV-1).
Assay [25] concerns the target HIV-1 envelope glycoprotein (Env) of isolate MGRM-C-020, on pseudovirus (HIV-1).
Assay [26] concerns the target HIV-1 MGRM-C-028 Env (on pseudovirus) (HIV-1).
The target of assay [27] is HIV-1 MGRM-D-001 Env (on pseudovirus) (HIV-1).
For assay [28], the target named is HIV-1 MGRM-D-018 Env (on pseudovirus) (HIV-1).
Assay [29] addresses HIV-1 envelope glycoprotein (Env) of isolate MGRM-C-022, on pseudovirus (HIV-1).
For assay [30], the target named is HIV-1 envelope glycoprotein (Env) of isolate MGRM-C-024, on pseudovirus (HIV-1).
Assay [31] deals with HIV-1 APV6 Env (on pseudovirus) (HIV-1).
The target of assay [32] is HIV-1 Env of isolate MGRM-D-029 (HIV-1).
For assay [33], the target named is HIV-1 Env of isolate MGRM-A-002 (HIV-1).
The target of assay [34] is HIV-1 Env of isolate MGRM-A-001 (HIV-1).
For assay [35], the target named is HIV-1 Env of isolate 92BR020 (HIV-1).

Chain of PGT-144 (4970_K22) (antibody) (VH): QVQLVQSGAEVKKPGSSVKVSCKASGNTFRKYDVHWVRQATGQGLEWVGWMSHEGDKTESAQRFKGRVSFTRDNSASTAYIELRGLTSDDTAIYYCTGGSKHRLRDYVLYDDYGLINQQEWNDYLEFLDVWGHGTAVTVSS
Chain of PGT-144 (4970_K22) (antibody) (VL): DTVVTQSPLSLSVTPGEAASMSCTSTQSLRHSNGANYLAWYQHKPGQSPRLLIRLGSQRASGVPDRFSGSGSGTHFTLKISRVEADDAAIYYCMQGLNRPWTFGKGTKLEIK
Chain of PGT-143 (4980_N08) (antibody) (VH): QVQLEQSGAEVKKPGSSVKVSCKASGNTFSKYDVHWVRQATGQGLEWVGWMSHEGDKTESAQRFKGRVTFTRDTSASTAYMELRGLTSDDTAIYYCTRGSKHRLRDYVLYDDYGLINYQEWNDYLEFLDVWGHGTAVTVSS
Chain of PGT-143 (4980_N08) (antibody) (VL): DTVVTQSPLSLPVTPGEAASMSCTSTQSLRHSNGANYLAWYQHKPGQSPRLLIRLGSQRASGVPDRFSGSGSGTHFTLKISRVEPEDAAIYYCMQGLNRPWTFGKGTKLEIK
Chain of PGT-141 (4964_G22; 4993_K13) (antibody) (VH): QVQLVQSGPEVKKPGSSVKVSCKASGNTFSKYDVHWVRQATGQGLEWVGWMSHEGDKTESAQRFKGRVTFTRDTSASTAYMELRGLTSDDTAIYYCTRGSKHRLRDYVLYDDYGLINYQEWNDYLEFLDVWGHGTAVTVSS
Chain of PGT-141 (4964_G22; 4993_K13) (antibody) (VL): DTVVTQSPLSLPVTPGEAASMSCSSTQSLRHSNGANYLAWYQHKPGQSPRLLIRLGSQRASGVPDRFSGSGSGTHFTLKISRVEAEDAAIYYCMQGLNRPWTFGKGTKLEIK
Chain of 1443_C16 (PG16) (TCN-116) (antibody) (VH): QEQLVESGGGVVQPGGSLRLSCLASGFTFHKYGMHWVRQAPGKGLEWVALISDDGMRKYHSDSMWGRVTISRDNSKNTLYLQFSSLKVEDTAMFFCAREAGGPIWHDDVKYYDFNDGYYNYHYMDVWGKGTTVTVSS
Chain of 1443_C16 (PG16) (TCN-116) (antibody) (VL): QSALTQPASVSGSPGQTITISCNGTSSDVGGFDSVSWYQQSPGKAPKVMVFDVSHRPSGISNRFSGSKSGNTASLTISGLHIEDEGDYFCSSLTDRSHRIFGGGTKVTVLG
Chain of PGT-142 (4995_E20) (antibody) (VH): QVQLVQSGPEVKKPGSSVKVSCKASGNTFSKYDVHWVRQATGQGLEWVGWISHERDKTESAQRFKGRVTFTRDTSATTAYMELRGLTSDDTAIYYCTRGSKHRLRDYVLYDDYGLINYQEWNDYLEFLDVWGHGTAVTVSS

The substance 2F5 (antibody) returned an IC50 (µg/ml), pseudovirus neutralization in assay [1] of 4.57 µg/mL.

In assay [2], 2G12 (antibody) registered an IC90 (pseudovirus neutralization) above 50 µg/mL. This substance also gave an IC50 (µg/ml), pseudovirus neutralization in assay [1] above 50 µg/mL.

4E10 (antibody) came in with an IC90 (pseudovirus neutralization) in assay [2] above 50 µg/mL.

Take 1443_C16 (PG16) (TCN-116) (antibody): the IC50, pseudovirus neutralization, 1 hour Virus/Ab Incubation was above 50000 ng/mL in assay [3], 0.114 µg/mL in assay [4] and above 50 µg/mL in assay [6]. For the same substance, the IC50, pseudovirus neutralization, 18 hour Virus/Ab Incubation was above 50 µg/mL in assay [3], 0.106 µg/mL in assay [4] and above 50 µg/mL in assay [6]. The same substance came in with an IC50 (ug/ml), neutralization in [5] of 0.09 µg/mL. Also, the IC90 (pseudovirus neutralization) in assay [2] stood at 0.207 µg/mL.

As to 1495_C14 (PGC14) (antibody), the IC50, pseudovirus neutralization, 1 hour Virus/Ab Incubation in [3] was 6.9 ng/mL; in assay [4], above 50 µg/mL; in [6] it was 1.17 µg/mL. The results for the IC50, pseudovirus neutralization, 18 hour Virus/Ab Incubation in assay [3], in [4] and in assay [6] were below 0.0025 µg/mL, 13.4 µg/mL and 0.244 µg/mL, respectively. The same substance had an IC50 (µg/ml), pseudovirus neutralization in assay [1] of 6 µg/mL.

Regarding 1496_C09 (PG9) (TCN-109) (antibody), the IC50 neutralization in [7] came to 0.121 µg/mL. Moreover, the IC50 (µg/mL), pseudovirus neutralization in assay [8] amounted to 0.033 µg/mL; in assay [9], 0.175 µg/mL; in assay [10], 0.227 µg/mL; in assay [17], 20.2 µg/mL. This substance also gave an IC50, pseudovirus neutralization, 1 hour Virus/Ab Incubation in [4] of 24.9 µg/mL. The substance further showed an IC50, pseudovirus neutralization, 18 hour Virus/Ab Incubation in [4] of 2.11 µg/mL. In addition, the IC50, pseudovirus neutralization in [11] worked out at 0.216 µg/mL; in assay [13], 0.688 µg/mL; in assay [15] it was 19.3 µg/mL; in assay [16] it was 0.2 µg/mL. The substance also yielded an IC50 (ug/ml), neutralization in assay [5] of 0.1 µg/mL. For the same substance, the IC90 (pseudovirus neutralization) in assay [2] was found to be 0.866 µg/mL. For the same substance, the half-inhibitory concentration (IC50) in assay [12] was 0.75 µg/mL; in assay [14], 0.258 µg/mL. For the same substance, the IC50 (µg/ml), pseudovirus neutralization in assay [1] came to 0.56 µg/mL.

As to 4838_L06 (PGT-121) (antibody), in [18], the neutralization IC80 was determined as 0.0829 µg/mL, the neutralization IC90 is 0.374 µg/mL and the neutralization IC95 is 3.14 µg/mL. In [19], this substance returned a neutralization IC90 of 0.369 µg/mL and a neutralization IC95 of 0.74 µg/mL.

In the case of 4858_P08 (PGT-123) (antibody), the neutralization IC50 in assay [20] was 3.37 µg/mL; in [21], above 50 µg/mL. The substance further displayed an IC50, pseudovirus neutralization in assay [22] of 0.014 µg/mL.

Regarding 4877_D15 (PGT-122) (antibody), the neutralization IC50 in assay [20] is 0.521 µg/mL; in [21] it was 43.7 µg/mL. Also, the IC50, pseudovirus neutralization in assay [22] was 0.026 µg/mL.

Turning to 5123_A06 (PGT-125) (antibody), the neutralization IC50 in [20] was 0.004 µg/mL; in [21] it was above 50 µg/mL. The same substance had an IC50, pseudovirus neutralization in [22] of 0.009 µg/mL.

5141_B17 (PGT-126) (antibody) gave a neutralization IC50 in assay [20] of 0.008 µg/mL. In assay [18], the IC50 was 1.14 µg/mL, the 80% effect concentration (IC80) was above 10 µg/mL, the 90% effect concentration (IC90) was above 10 µg/mL and the IC95 is above 10 µg/mL. The substance also yielded a neutralization IC50 in assay [21] above 50 µg/mL. Moreover, the IC50, pseudovirus neutralization in assay [22] came to 0.014 µg/mL. In assay [19], this substance showed an IC50 of 0.0256 µg/mL, an IC80 of 0.102 µg/mL, a concentration for an effect of 90% (IC90) of 0.238 µg/mL and an IC95 of 0.577 µg/mL.

Turning to 5145_B14 (PGT-127) (antibody), the results for the neutralization IC50 in assay [20] and in assay [21] were 0.018 µg/mL and above 50 µg/mL, respectively. Also, the IC50, pseudovirus neutralization in assay [22] turned out to be 0.029 µg/mL.

Turning to PGT-141 (4964_G22; 4993_K13) (antibody), the IC50 (ug/ml), pseudovirus neutralization in assay [23] was above 10 µg/mL; in assay [24], 0.392 µg/mL; in assay [26], 2.35 µg/mL; in assay [27] it was above 10 µg/mL; in assay [28], above 10 µg/mL; in assay [31] it was 5.08 µg/mL. Further, the IC50, pseudovirus neutralization in assay [25] was 1.34 µg/mL; in assay [29], 0.381 µg/mL; in [30], 0.101 µg/mL.

On to PGT-142 (4995_E20) (antibody), for which the IC50 (ug/ml), pseudovirus neutralization in assay [23] is above 10 µg/mL; in [24] it was 0.22 µg/mL; in assay [26] it was 1.23 µg/mL; in [27] it was above 10 µg/mL; in [28], above 10 µg/mL; in assay [31], 5.42 µg/mL. For the same substance, the IC50, pseudovirus neutralization stood at 0.446 µg/mL in assay [25], 0.086 µg/mL in assay [29] and 0.03 µg/mL in assay [30].

On to PGT-143 (4980_N08) (antibody), for which the IC50 (ug/ml), pseudovirus neutralization was above 10 µg/mL in assay [23]; 0.244 µg/mL in [24]; 1.82 µg/mL in [26]; above 10 µg/mL in [27]; above 10 µg/mL in [28]; 4.43 µg/mL in assay [31]. Further, the IC50, pseudovirus neutralization in assay [25] was 0.797 µg/mL; in assay [29], 0.103 µg/mL; in assay [30], 0.05 µg/mL.

Turning to PGT-144 (4970_K22) (antibody), the IC50 (ug/ml), pseudovirus neutralization in assay [23], in assay [24], in assay [26], in assay [27], in assay [28] and in [31] was above 10 µg/mL each time. Moreover, the values for the IC50, pseudovirus neutralization in assay [25], in assay [29] and in assay [30] were 1.29 µg/mL, 2.58 µg/mL and 2.06 µg/mL, respectively.

As to PGV04 (antibody), the IC50 (µg/mL), pseudovirus neutralization was 1.56 µg/mL in [32]; 0.09 µg/mL in assay [8]; 0.58 µg/mL in assay [9]; above 50 µg/mL in [10]; 1.01 µg/mL in assay [17]. For the same substance, the IC50, pseudovirus neutralization is 0.164 µg/mL in assay [11], 0.129 µg/mL in assay [13], 2.26 µg/mL in [15] and above 50 µg/mL in assay [16]. Moreover, the IC50 in assay [33] is 0.093 µg/mL; in assay [12], 0.134 µg/mL; in [14], 0.31 µg/mL; in assay [34] it was 6.78 µg/mL.

In the case of VRC01 (antibody), the IC50, pseudovirus neutralization in assay [32] was 3.22 µg/mL; in [25], 0.396 µg/mL; in [9], 0.305 µg/mL; in assay [17] it was 0.377 µg/mL; in assay [29] it was 13 µg/mL; in [30], 3.4 µg/mL. In addition, the IC50 in [35] was determined as 0.29 µg/mL.

Take b12 (antibody): the IC90 (pseudovirus neutralization) in assay [2] was above 50 µg/mL. In [1], the IC50 (µg/ml), pseudovirus neutralization was above 50 µg/mL.

A word on the IC50: it is the point on the concentration scale where inhibition reaches its midpoint. Broadly, the IC80 is the concentration at which the effect reaches the 80% level. Low readings indicate an effect from little substance, high ones a need for much substance. What is called IC90 is the concentration at which the effect reaches the 90% level. Higher therefore signals weaker potency. In general, IC95 refers to the concentration at which the effect reaches the 95% level. A low value points to greater potency.
